Ends that are not written are not given here.
T1: corticotropin releasing factor 2 receptor
T1 sequence (Q13324 whole entry, species assumed, looked up): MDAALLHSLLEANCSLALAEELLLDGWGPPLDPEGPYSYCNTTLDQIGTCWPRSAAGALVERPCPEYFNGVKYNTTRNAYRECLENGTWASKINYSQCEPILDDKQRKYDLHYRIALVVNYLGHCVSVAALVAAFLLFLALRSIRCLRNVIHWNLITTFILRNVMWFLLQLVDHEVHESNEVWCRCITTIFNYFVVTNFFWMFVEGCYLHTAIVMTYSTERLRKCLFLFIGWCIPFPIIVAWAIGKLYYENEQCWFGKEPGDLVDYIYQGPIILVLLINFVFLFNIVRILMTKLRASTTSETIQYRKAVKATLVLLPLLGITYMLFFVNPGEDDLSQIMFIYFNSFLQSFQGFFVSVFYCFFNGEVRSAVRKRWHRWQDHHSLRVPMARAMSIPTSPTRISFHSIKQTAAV


Key:
[1] = biological target: T1, corticotropin releasing factor 2 …; experiment: cell-based or functional assay
[2] = biological target: corticotropin releasing factor 1 receptor; experiment: cell-based or functional assay

CRF2R EC50 [1]	CRF2R Emax [1]	CRF1R EC50 [2]	CRF1R Emax [2]	Binder
> 100 nM	75%	> 100 nM	19%	IVLSLDVPIGLLQEVLEMARAEQLAQQAHSNRKLMEII-NH2 [SEQ ID NO 165]
13 nM	100%	1000 nM	15%	IVLSLDVPIGLLQILLEQEKQEKEKQQATTNARILARV-NH2 [SEQ ID NO 167]
> 100 nM	88%	> 100 nM	77%	SEEPPISLDLTFHLLREVLEMARAEQLAQQAHTNARILARV-NH2 [SEQ ID NO 161]
100 nM	65.2%	1000 nM	6.05%	DNPSLSIDLPTYLLRTLLELARTQSQRERAEQNAIIFASV-NH2 [SEQ ID NO 173]
4.9 nM	75%	1000 nM	52%	IVLSLDVPIGLLQILIEIEKQEKEKQQAATTNARILARV-NH2 [SEQ ID NO 168]
13.5 nM	100%	1000 nM	68%	ZGPPISIDVPFQLLRKMIEIEKQEKEKQQATTNARILARV (C-terminal amide) [SEQ ID NO 172]
75 nM	83%	1000 nM	9%	ZGPPISIDVPTYLLRKMIEIEKQEKEKQQATTNARILARV (C-terminal amide) [SEQ ID NO 170]
17.8 nM	93%	978 nM	26%	ZGPPISIDVPTYLLRILIEIEKQEKEKQQATTNARILARV (C-terminal amide) [SEQ ID NO 169]
17.6 nM	100%	206 nM	99%	ZGPPISIDVPFQLLRILIEIEKQEKEKQQATTNARILARV (C-terminal amide) [SEQ ID NO 171]
9.15 nM	87%	> 100 nM	10%	IVLSLDVPIGLLQTLLELARTQSQRERAEQNRIIFDSV-NH2 [SEQ ID NO 160]
2.24 nM	92%	> 100 nM	26%	IVLSLDVPIGLLQILLEMARAEQLAQQAHSNRKLMEII-NH2 [SEQ ID NO 164]
> 100 nM	7%	> 100 nM	11%	SEEPPISLDVPIGLLQEVLEMARAEQLAQQAHSNRKLMEII-NH2 [SEQ ID NO 162]
3.7 nM	99%	438 nM	95%	IVLSLDVPIGLLQILIEIEKQEKEKQQAANNARILARV-NH2 [SEQ ID NO 166]
4.49 nM	96%	> 100 nM	13%	IVLSLDVPIGLLQILLEQARARAAREQATSNRKLMEII-NH2 [SEQ ID NO 163]

Second part, the binder before the results:

Binder	CRF2R EC50 [1]	CRF2R Emax [1]	CRF1R EC50 [2]	CRF1R Emax [2]
IVLSLDVPIGLLQILLEIEKQEKEKQQAANNRLLLDTI-NH2 [SEQ ID NO 158]	6.37 nM	89%	> 100 nM	15%
SQEPPISLDLTFHLLREVLEQARARAAREQATTNARILARV-NH2 [SEQ ID NO 157]	42 nM	60.6%	100 nM	91%
ZGPPISIDLSLELLRKMIEQARARAAREQATTNARILARV (C-terminal amide) [SEQ ID NO 156]	9.29 nM	79%	> 100 nM	6%
IVLSLDVPIGLLQILLEMTKADQLAQQAHSNRKLLDIA-NH2 [SEQ ID NO 155]	20.6 nM	94%	40.6 nM	16%
IVLSLDVPIGLLQILLEQAAAREQATTNARILARV-NH2 [SEQ ID NO 139]	42.6 nM	60%	> 100 nM	4%
IVLSLDVPIGLLQILIEIEKQEKEKQQAANNRLLLDTI-NH2 [SEQ ID NO 154]	10.3 nM	100%	> 100 nM	7%
ZGPPISIDLPFQLLRKMIEIEKQEKEKQQAAANRLLLDTV (C-terminal amide) [SEQ ID NO 15]	6.56 nM	97%	85.3 nM	86%
ZGPPISIDLPFQLLRKMIEIEKQEKEKQQATTNRLLLDTV (C-terminal amide) [SEQ ID NO 16]	7.88 nM	86%	136 nM	98%
ZGPPISIDLPFQLLRKMIEIEKQEKEKQQATTNRLLLATV (C-terminal amide) [SEQ ID NO 17]	10.2 nM	96%	260 nM	98%
IVLSLDVPIGLLQILLEQTKADQLAQQAHSNRKLLDIA-NH2 [SEQ ID NO 159]	90.8 nM	62%	> 100 nM	9%
ZGPPISIDLSLELLRKMIEIEKQEKEKQQATTNARILARV (C-terminal amide) [SEQ ID NO 142]	9.08 nM	77%	43.5 nM	85.3%
ZGPPISIDLPIQLLRKMIEIEKQEKEKQQATTNARILARV (C-terminal amide) [SEQ ID NO 150]	34.6 nM	70.5%	1000 nM	5.7%
ZGPPISIDLPLQLLRKMIEIEKQEKEKQQATTNARILARV (C-terminal amide) [SEQ ID NO 144]	9.16 nM	85.5%	567 nM	100%
ZGPPISIDLPFHLLRKMIEIEKQEKEKQQATTNARILARV (C-terminal amide) [SEQ ID NO 146]	8.2 nM	84.5%	103 nM	100%
ZGPPISIDLPFYLLRKMIEIEKQEKEKQQATTNARILARV (C-terminal amide) [SEQ ID NO 147]	6.75 nM	94%	102 nM	96%
ZGPPISIDLPIYLLRKMIEIEKQEKEKQQATTNARILARV (C-terminal amide) [SEQ ID NO 149]	26.2 nM	95.5%	1000 nM	40.7%
ZGPPISIDLPFQLLRKMIEIEKQEKEKQQATTNARILARV (C-terminal amide) [SEQ ID NO 148]	9.45 nM	51.5%	295 nM	100%
ZGPPISIDLPTYLLRKMIEIEKQEKEKQQATTNARILARV (C-terminal amide) [SEQ ID NO 151]	36.8 nM	96%	1000 nM	19.9%
ZGPPISIDLPLHLLRKMIEIEKQEKEKQQATTNARILARV (C-terminal amide) [SEQ ID NO 145]	7.8 nM	69%	196 nM	91.3%
ZGPPISIDLPLELLRKMIEIEKQEKEKQQATTNARILARV (C-terminal amide) [SEQ ID NO 143]	11.1 nM	85.5%	232 nM	100%
SQEIVLSLDVPIGLLREVLEMTKADQLAQQAHSNRKLLDIA-NH2 [SEQ ID NO 152]	> 100 nM	19%	> 100 nM	4%
IVLSLDVPIGLLQILLEQARAAAREQATTNARILARV-NH2 [SEQ ID NO 141]	> 100 nM	29%	> 100 nM	7%
ZGIVLSLDVPIGLLRKMIEIEKQEKEKQQAANNRLLLDTI (C-terminal amide) [SEQ ID NO 153]	9.28 nM	97%	> 100 nM	7%

Reference: patent publication US20030148958A1 (PROCTER AND GAMBLE, published 2003)
